Measurements taken from publication PMC5934636.

T1: hLa R32A/K34A/K37A (human, UniProt P05455 1-408, R32A;K34A;K37A)
T1 sequence: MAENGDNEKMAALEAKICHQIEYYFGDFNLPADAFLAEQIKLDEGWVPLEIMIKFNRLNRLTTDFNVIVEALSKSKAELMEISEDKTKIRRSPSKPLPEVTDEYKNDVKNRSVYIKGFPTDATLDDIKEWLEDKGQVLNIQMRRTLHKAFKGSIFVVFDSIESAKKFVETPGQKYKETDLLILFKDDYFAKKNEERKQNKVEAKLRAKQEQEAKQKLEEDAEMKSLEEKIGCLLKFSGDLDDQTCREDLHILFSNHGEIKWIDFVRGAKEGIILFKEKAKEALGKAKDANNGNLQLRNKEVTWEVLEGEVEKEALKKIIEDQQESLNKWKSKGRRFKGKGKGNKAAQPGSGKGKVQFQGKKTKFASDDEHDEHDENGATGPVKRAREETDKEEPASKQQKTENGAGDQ

T2: hLa K86A/T87A/K88A (human, UniProt P05455 1-408, K86A;T87A;K88A)
T2 sequence: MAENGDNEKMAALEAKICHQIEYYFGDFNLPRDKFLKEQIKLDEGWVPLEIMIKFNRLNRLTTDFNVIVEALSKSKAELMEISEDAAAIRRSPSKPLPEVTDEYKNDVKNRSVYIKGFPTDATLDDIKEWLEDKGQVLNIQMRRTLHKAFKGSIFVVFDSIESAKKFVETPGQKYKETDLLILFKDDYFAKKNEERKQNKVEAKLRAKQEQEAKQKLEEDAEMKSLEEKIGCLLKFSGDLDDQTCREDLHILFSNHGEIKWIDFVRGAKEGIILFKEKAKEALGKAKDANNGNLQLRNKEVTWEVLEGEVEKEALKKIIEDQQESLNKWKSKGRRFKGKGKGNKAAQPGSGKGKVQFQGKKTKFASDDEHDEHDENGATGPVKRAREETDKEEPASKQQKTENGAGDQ

T3: human La (hLa) (human, UniProt P05455 1-408)
T3 sequence: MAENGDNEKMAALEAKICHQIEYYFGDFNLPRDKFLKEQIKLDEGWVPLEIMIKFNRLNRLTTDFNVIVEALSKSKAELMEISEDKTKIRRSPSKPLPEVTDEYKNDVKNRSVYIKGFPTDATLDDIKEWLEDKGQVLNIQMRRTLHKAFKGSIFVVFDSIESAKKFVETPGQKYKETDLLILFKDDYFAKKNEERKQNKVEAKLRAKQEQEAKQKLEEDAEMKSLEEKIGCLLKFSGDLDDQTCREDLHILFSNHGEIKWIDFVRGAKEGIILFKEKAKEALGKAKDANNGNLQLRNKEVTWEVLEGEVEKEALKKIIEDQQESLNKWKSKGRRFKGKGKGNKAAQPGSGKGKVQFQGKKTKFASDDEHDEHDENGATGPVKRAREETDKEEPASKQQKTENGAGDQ


Key:
hLa R32A/K34A/K37A = target: T1, hLa R32A/K34A/K37A; test: EMSA
hLa K86A/T87A/K88A = target: T2, hLa K86A/T87A/K88A; test: EMSA
human La (hLa) = target: T3, human La (hLa); test: competition

Row | Binder | binding result (hLa R32A/K34A/K37A) | binding result (hLa K86A/T87A/K88A) | binding result (human La (hLa))
1 | AAAAAAAAAAAAAAAAAAAA (ssRNA) [A20] | binds |  | 
2 | UUUUUUUUUU (ssRNA) [U10] | binds | binds | 
3 | UUUUUUUUUUUUUUUUUUUU (ssRNA) [U20] |  |  | binds
